This passage reports binding result and Kd results from publication PMC4117426, “SlmA Antagonism of FtsZ Assembly Employs a Two-pronged Mechanism like MinCD”.

Common to all, as to details: protein: recombinant; tags: N-terminal 6xHis; chain copies: 4; blunt
One data set addresses T1, 6xHis-SlmA-T33A (Escherichia coli, UniProt P0C093 1-198, T33A).
T1 sequence: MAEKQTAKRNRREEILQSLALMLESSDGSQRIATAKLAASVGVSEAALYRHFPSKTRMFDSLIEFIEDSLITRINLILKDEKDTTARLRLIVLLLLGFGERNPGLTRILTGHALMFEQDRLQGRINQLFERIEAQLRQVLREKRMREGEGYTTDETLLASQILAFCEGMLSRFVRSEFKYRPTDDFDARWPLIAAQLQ
Description: BLI; 4 uM SlmA; BLI in 1x Pol buffer: 50 mM HEPES-NaOH pH 8.0, 200 mM KCl, 10 mM MgCl2, room temperature; 50 nM biotinylated SBS17 on streptavidin tips.

The target of another data set is T2, 6xHis-SlmA WT (Escherichia coli, UniProt P0C093 1-198).
T2 sequence: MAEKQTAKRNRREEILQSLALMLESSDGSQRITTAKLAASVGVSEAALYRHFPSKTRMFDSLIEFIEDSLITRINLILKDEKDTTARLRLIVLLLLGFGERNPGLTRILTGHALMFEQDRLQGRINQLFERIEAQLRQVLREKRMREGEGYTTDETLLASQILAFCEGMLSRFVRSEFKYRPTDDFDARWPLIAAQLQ
Description: BLI; kon 3.24e4 1/(M*s), koff 2.04e-3 1/s, R2 0.98; BLI in 1x Pol buffer: 50 mM HEPES-NaOH pH 8.0, 200 mM KCl, 10 mM MgCl2, room temperature; 50 nM biotinylated SBS17 on streptavidin tips.

A further data set has as its target T3, 6xHis-SlmA-F65A (Escherichia coli, UniProt P0C093 1-198, F65A).
T3 sequence: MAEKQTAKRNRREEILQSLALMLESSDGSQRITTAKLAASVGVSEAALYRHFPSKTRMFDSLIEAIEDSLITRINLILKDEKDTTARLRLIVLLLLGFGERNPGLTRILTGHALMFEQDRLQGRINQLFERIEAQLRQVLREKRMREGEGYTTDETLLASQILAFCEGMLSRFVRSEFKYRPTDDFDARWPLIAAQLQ
Description: BLI; 4 uM SlmA; binds like WT; BLI in 1x Pol buffer: 50 mM HEPES-NaOH pH 8.0, 200 mM KCl, 10 mM MgCl2, room temperature; 50 nM biotinylated SBS17 on streptavidin tips.

The next data set deals with T4, 6xHis-SlmA-R73D (Escherichia coli, UniProt P0C093 1-198, R73D).
T4 sequence: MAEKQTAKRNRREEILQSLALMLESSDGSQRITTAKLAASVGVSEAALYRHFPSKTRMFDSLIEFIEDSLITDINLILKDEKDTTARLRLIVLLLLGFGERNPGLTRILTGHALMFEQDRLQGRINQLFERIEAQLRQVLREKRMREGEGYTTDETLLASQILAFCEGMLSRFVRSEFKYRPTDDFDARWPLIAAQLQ
The data set is described as above.

B1: biotinylated SBS17-30mer (dsDNA)
DNA 1: CAAAAGTAAGTAAATGGTCACTAACGTTGA
DNA 2: TCAACGTTAGTGACCATTTACTTACTTTTG
As for B1, the binding result in the data set with 6xHis-SlmA-T33A is “no binding”; with 6xHis-SlmA-F65A, “binds”; with 6xHis-SlmA-R73D, “binds”. Further, the Kd with 6xHis-SlmA WT came out at 62.9 nM.
